Results as given in patent US11707527B2, “Nanoscale drug carrier capable of passing through blood-brain barrier” (KUNSHAN XINYUNDA BIOTECH CO., LTD., priority 2017, dated 2023).

Assays:
hCMEC/D3 BBB model = assay: In vitro BBB model (Transwell) transcytosis; format: in vitro ADME, human; details: 50 μg/mL FITC-labeled, 6 h, upper to lower chamber
Experimental: The cells were cultured at 37° C. under CO2 in an incubator to confluence (2-3d). After the confluence state of hCMEC/D3 was observed by a microscope, medium (EBM-2 medium) was added to an upper chamber of the Transwell plate, resulting a more than 0.5 cm difference of liquid level between the upper and lower chamberst. If an obvious difference between the two chambers can be still observed after 4 h, it was regarded as completely confluent. The wells of Transwell without inoculated cells were used as a blank control.
Equal amount (50 μg/mL) of FITC-labeled H-ferritins and the control FITC-labeled BSA were dissolved in EBM-2 medium (Gibco Life Technologies Inc., UK). […] The total volume (V) of the lower chamber was measured after being cultured for 6 h in a cell incubator. And then, 50 μL samples were respectively taken out of the lower chamber, and H-ferritin or BSA concentration (C) was measured by measuring fluorescence intensity (wavelength 488 nm). Afterwards, transcytosis efficiency was calculated according to the following formula: transcytosis efficiency %=(Clower chamber×Vlower chamber)/(Cinitial×Vinitial)×100%.

[1] = test system: human BBB brain endothelial hCMEC/D3 cells; assay: Specific binding of FITC-labeled ferritin to human brain endothelial cells (flow cytometry); format: cell-based; details: 50 μg/ml FITC-labeled protein, 45 min, 4° C., hCMEC/D3, vs FITC-BSA
Experimental: Human BBB brain endothelial hCMEC/D3 cells were cultured to about 1×10^5 (100×20 mm, dish Corning, USA) and digested with trypsin, then the cells were washed with 0.3% (w/v) BSA/PBS (pH7.4) for three times. […] The cells were washed with 0.3% BSA/PBS for three times, finally resuspended in PBS (pH7.4). And fluorescence of the samples was tested by flow cytometry (at a wavelength of 488 nm).

[2] = test system: human BBB brain endothelial cells hCMEC/D3; assay: Endocytosis and lysosome co-localization in human brain endothelial cells (confocal microscopy); format: cell-based; details: hCMEC/D3, 4 h incubation
Experimental: Human BBB brain endothelial cells hCMEC/D3 slides (BD Biosciences) were placed in a 6-well plate (with well diameter of 34.8 mm, Corning, USA) for culturing above to a density of about 60%, then the experiment was conducted. 1 μM FITC-labeled H-ferritin above was added, and incubated respectively for 5 min and 6 min at 37° C. Then the cells were washed with 0.3% BSA/PBS for three times, and finally fixed with 4% paraformaldehyde. After being washed with PBS (pH7.4) for three times, cell nuclei were stained with DAPI (Roche Applied Science) 10 min at room temperature. After being washed by PBS for three times again, the slides were mounted with a mounting medium, and observed by laser confocal microscopy (Olympus FluoView FV-1000, Tokyo, Japan).
Human BBB brain endothelial cells hCMEC/D3 slides (BD Biosciences) were placed in a 6-well plate for culturing to a density of about 60%, and then the experiment was conducted. […] The cells were fixed with 4% paraformaldehyde after being washed with PBS for three times. Then 0.1% Triton X-100 was used for cell permeabilization After being washed with PBS again, the cells were blocked in 5% goat serum (ZSGB-BIO) 30 min at room temperature, and then incubated in Alexa Fluor®555-labeled antibodies and lysosome marker molecules LAMP1 (1:200, clone H4A3; Invitrogen) for 1 h at 37° C. […]

B1: chimeric human H-ferritin: human L-ferritin with outer surface sequences replaced with SEQ ID NO: 1-3 of H-ferritin; SEQ ID NO: 7 (protein)
chain: MTSQVRQNYHQDSEAAINRQINLELYASYVYLSMSYYFDRDDVALEGVSHFFRELAEEKREGYERLLKMQNQRGGRIFLQDIKKPDCDDWESGLNAMECALHLEKNVNQSLLELHKLATDKNDPHLCDFLETHFLDEEVKLIKKMGDHVTNLRKMGAPESGLAEYLFERLTLKHD
modifications: chimeric human H ferritin
**Q.** What does the source list for B1?
**A.** crossing the in vitro BBB model (transcytosis efficiency) (hCMEC/D3 BBB model): can significantly cross the blood brain barrier; specific binding with human brain endothelial cells [1]: can still achieve specific binding; entering / co-localization with lysosome (LAMP1) in brain endothelial cells [2]: did not co-localize with the lysosome
